Our source for the abundance fitness values is the Human Domainome abundance scans (Beltran et al. 2025).

± gives the uncertainty stated by the source.

Sequences and labels used below:
B1: Double-stranded RNA-binding protein Staufen homolog 1, residues 183 to 249; numbered along this chain, O95793 (parent)
chain: KSEISQVFEIALKRNLPVNFEVARESGPPHMKNFVTKVSVGEFVGEGEGKSKKISKKNAAIAVLEEL

The variants in the data set derive from B1. The experiment in a line: abundance fitness (aPCA) (normalised: wild type 0, dead -1); higher = more abundant; growth selection in yeast, the domain comes from the species named. The note with it: Homo sapiens.
KSEISQVFEIALKRNLPVNFEVARESGPPHMKNFVTKVSVGEFVGEGEGKSKKDSKKNAAIAVLEEL [I54D]: the abundance fitness was -0.04 ± 0.072.

KSEISQVFEIALKRNLPVNFEVARESGPPHMKNFVTKVSVGEFVGEGEGKSKKWSKKNAAIAVLEEL [I54W]: the abundance fitness is -0.619 ± 0.05.

Take KSEISQVFEIALKRNLPVNFEVARESGPPHMKNFVTKVSVGEFVGEGEGKSKKPSKKNAAIAVLEEL [I54P]: the abundance fitness is -0.724 ± 0.073.

Take KSEISQVFEIALKRNLPVNFEVARESGPPHMKNFVTKVSVGEFVGEGEGKSKKTSKKNAAIAVLEEL [I54T]: the abundance fitness is -0.132 ± 0.049.

On to KSEISQVFEIALKRNLPVNFEVARESGPPHMKNFVTKVSVGEFVGEGEGKSKKSSKKNAAIAVLEEL [I54S], for which the abundance fitness is -0.066 ± 0.045.

For KSEISQVFEIALKRNLPVNFEVARESGPPHMKNFVTKVSVGEFVGEGEGKSKKKSKKNAAIAVLEEL [I54K], the abundance fitness was -0.081 ± 0.049.

Turning to KSEISQVFEIALKRNLPVNFEVARESGPPHMKNFVTKVSVGEFVGEGEGKSKKESKKNAAIAVLEEL [I54E], the abundance fitness was determined as 0.09 ± 0.043.

Turning to KSEISQVFEIALKRNLPVNFEVARESGPPHMKNFVTKVSVGEFVGEGEGKSKKCSKKNAAIAVLEEL [I54C], the abundance fitness is -0.26 ± 0.052.

Regarding KSEISQVFEIALKRNLPVNFEVARESGPPHMKNFVTKVSVGEFVGEGEGKSKKLSKKNAAIAVLEEL [I54L], the abundance fitness was -0.017 ± 0.036.

Take KSEISQVFEIALKRNLPVNFEVARESGPPHMKNFVTKVSVGEFVGEGEGKSKKFSKKNAAIAVLEEL [I54F]: the abundance fitness is -0.661 ± 0.12.

As to KSEISQVFEIALKRNLPVNFEVARESGPPHMKNFVTKVSVGEFVGEGEGKSKKHSKKNAAIAVLEEL [I54H], the abundance fitness was -0.221 ± 0.075.

In the case of KSEISQVFEIALKRNLPVNFEVARESGPPHMKNFVTKVSVGEFVGEGEGKSKKYSKKNAAIAVLEEL [I54Y], the abundance fitness is -0.642 ± 0.084.

With KSEISQVFEIALKRNLPVNFEVARESGPPHMKNFVTKVSVGEFVGEGEGKSKKASKKNAAIAVLEEL [I54A], the abundance fitness was -0.063 ± 0.042.

Regarding KSEISQVFEIALKRNLPVNFEVARESGPPHMKNFVTKVSVGEFVGEGEGKSKKVSKKNAAIAVLEEL [I54V], the abundance fitness is -0.075 ± 0.038.

On to KSEISQVFEIALKRNLPVNFEVARESGPPHMKNFVTKVSVGEFVGEGEGKSKKMSKKNAAIAVLEEL [I54M], for which the abundance fitness is -0.051 ± 0.047.

Take KSEISQVFEIALKRNLPVNFEVARESGPPHMKNFVTKVSVGEFVGEGEGKSKKQSKKNAAIAVLEEL [I54Q]: the abundance fitness is -0.052 ± 0.042.

For the variant KSEISQVFEIALKRNLPVNFEVARESGPPHMKNFVTKVSVGEFVGEGEGKSKKRSKKNAAIAVLEEL [I54R], the abundance fitness was -0.23 ± 0.033.

For the variant KSEISQVFEIALKRNLPVNFEVARESGPPHMKNFVTKVSVGEFVGEGEGKSKKISCKNAAIAVLEEL [K56C], the abundance fitness is -0.524 ± 0.11.

Take KSEISQVFEIALKRNLPVNFEVARESGPPHMKNFVTKVSVGEFVGEGEGKSKKISAKNAAIAVLEEL [K56A]: the abundance fitness was -0.457 ± 0.069.

Regarding KSEISQVFEIALKRNLPVNFEVARESGPPHMKNFVTKVSVGEFVGEGEGKSKKISDKNAAIAVLEEL [K56D], the abundance fitness was -0.661 ± 0.18.

KSEISQVFEIALKRNLPVNFEVARESGPPHMKNFVTKVSVGEFVGEGEGKSKRISKKNAAIAVLEEL [K53R]: the abundance fitness was -0.042 ± 0.04.

Consider KSEISQVFEIALKRNLPVNFEVARESGPPHMKNFVTKVSVGEFVGEGEGKSKHISKKNAAIAVLEEL [K53H], for which the abundance fitness is -0.263 ± 0.077.

With KSEISQVFEIALKRNLPVNFEVARESGPPHMKNFVTKVSVGEFVGEGEGKSKVISKKNAAIAVLEEL [K53V], the abundance fitness is -0.22 ± 0.042.

For KSEISQVFEIALKRNLPVNFEVARESGPPHMKNFVTKVSVGEFVGEGEGKSKQISKKNAAIAVLEEL [K53Q], the abundance fitness was -0.207 ± 0.065.

In the case of KSEISQVFEIALKRNLPVNFEVARESGPPHMKNFVTKVSVGEFVGEGEGKSKLISKKNAAIAVLEEL [K53L], the abundance fitness was -0.235 ± 0.048.

With KSEISQVFEIALKRNLPVNFEVARESGPPHMKNFVTKVSVGEFVGEGEGKSKNISKKNAAIAVLEEL [K53N], the abundance fitness was -0.243 ± 0.065.

For the variant KSEISQVFEIALKRNLPVNFEVARESGPPHMKNFVTKVSVGEFVGEGEGKSKFISKKNAAIAVLEEL [K53F], the abundance fitness was -0.175 ± 0.075.

For the variant KSEISQVFEIALKRNLPVNFEVARESGPPHMKNFVTKVSVGEFVGEGEGKSKIISKKNAAIAVLEEL [K53I], the abundance fitness is -0.225 ± 0.067.

Take KSEISQVFEIALKRNLPVNFEVARESGPPHMKNFVTKVSVGEFVGEGEGKSKPISKKNAAIAVLEEL [K53P]: the abundance fitness was -0.284 ± 0.07.

Regarding KSEISQVFEIALKRNLPVNFEVARESGPPHMKNFVTKVSVGEFVGEGEGKSKMISKKNAAIAVLEEL [K53M], the abundance fitness is -0.278 ± 0.073.

Take KSEISQVFEIALKRNLPVNFEVARESGPPHMKNFVTKVSVGEFVGEGEGKSKGISKKNAAIAVLEEL [K53G]: the abundance fitness is -0.243 ± 0.036.

Regarding KSEISQVFEIALKRNLPVNFEVARESGPPHMKNFVTKVSVGEFVGEGEGKSKEISKKNAAIAVLEEL [K53E], the abundance fitness is -0.049 ± 0.058.

In the case of KSEISQVFEIALKRNLPVNFEVARESGPPHMKNFVTKVSVGEFVGEGEGKSKTISKKNAAIAVLEEL [K53T], the abundance fitness is -0.311 ± 0.057.

Consider KSEISQVFEIALKRNLPVNFEVARESGPPHMKNFVTKVSVGEFVGEGEGKSKAISKKNAAIAVLEEL [K53A], for which the abundance fitness was -0.129 ± 0.054.

Take KSEISQVFEIALKRNLPVNFEVARESGPPHMKNFVTKVSVGEFVGEGEGKSKWISKKNAAIAVLEEL [K53W]: the abundance fitness is -0.214 ± 0.053.

On to KSEISQVFEIALKRNLPVNFEVARESGPPHMKNFVTKVSVGEFVGEGEGKSKCISKKNAAIAVLEEL [K53C], for which the abundance fitness is -0.284 ± 0.055.

With KSEISQVFEIALKRNLPVNFEVARESGPPHMKNFVTKVSVGEFVGEGEGKSKDISKKNAAIAVLEEL [K53D], the abundance fitness was -0.192 ± 0.066.

Consider KSEISQVFEIALKRNLPVNFEVARESGPPHMKNFVTKVSVGEFVGEGEGKSFKISKKNAAIAVLEEL [K52F], for which the abundance fitness is -0.481 ± 0.082.

Regarding KSEISQVFEIALKRNLPVNFEVARESGPPHMKNFVTKVSVGEFVGEGEGKSVKISKKNAAIAVLEEL [K52V], the abundance fitness is -0.243 ± 0.044.

As for KSEISQVFEIALKRNLPVNFEVARESGPPHMKNFVTKVSVGEFVGEGEGKSYKISKKNAAIAVLEEL [K52Y], the abundance fitness is -0.329 ± 0.078.
